The experiment addresses RSV prefusion F (PR-DM) (respiratory syncytial virus A) (UniProt P03420). The experiment in a line: cryo-EM structure.

Take “RSV prefusion F (PR-DM) (from UniProt P03420) (complex)”: the stoichiometry N is 3.

One may read the stoichiometry N as a count of units in the complex or per binding partner.

The values are drawn from paper PMC11870394.
